From a protein production outcome set (Wang et al. 2014)

Experiment: label from the status in PepcDB records

NTLRELRLFLRDVTKRLATDKRFNIFSKPVSDYLEVIKEPMDLSTVITKIDKHNYLTAKDFLKDIDLICSNALEYNPDKDPGDKIIRHRACTLKDTAHAIIAAELDPEFNKLCEEIKE
protein production: not failed

MSLKITDVDVWVVNLPLVNPFTSSFETKTGETRTVVRVRTDSGVEGWGETMWGAPVAAIVRRMAPDLIGTSPFALEAFHRKQHMVPFFYGYLGYAAIAAVDVACWDAMGKATGQSVTDLLGGAVRDEVPITALITRADAPGATPADLPKAMAEHAVRVVEEGGFDAVKLKGTTDCAGDVAILRAVREALPGVNLRVDPNAAWSVPDSVRAGIALEELDLEYLEDPCVGIEGMAQVKAKVRIPLCTNMCVVRFEDFAPAMRLNAVDVIHGDVYKWGGIAATKALAAHCETFGLGMNLHSGGELGIATAAHLAVVSSTPVLSRAIDSMYYLHADDIIEPLHLENGRLRVPSGPGLGVSVDEDKLRHYAGVNERDGDLTGEGHHHHHH
protein production: not failed

MDKTQSYDIFLIAPPGLEQVLAEEATACGFDEPRVVPGGVETRGPWSEVMRANLVLRGAGRVLVRIGGFPAVHLAQLDKRARKFAWGDFLRPDRPIRVEAVSRKSKIYHAGAAKQRVERAITEELGAPISDEAEIRLMLRIERDFCTFSIDTSGEALHKRGHKEAVGKAPMRETMAALFLRQCGFDGAEPVLDPMCGSGSFVIEAAEWAAGLMPGRSRSFAFEQLAGFDAAQWQSMRNAAGAGGRPESLYSGSDRNAGAIDASRANATRAGVADFCAFHQRPVSDIRPPEGRPGLVIVNPPYGARIGDQARLRSLYGSLGKVLMDRFSGWRVGLITSEMSLARSTRLPFQAPGPVVDHGGIKVRLYQSVRLR
protein production: failed

MRLPLNQRVAILLHEGTTGTIGKTGLALLRYSEAPIVAVIDRNCAGQSLREITGIYRYVPIVKSVEAALEYKPQVLVIGIAPKGGGIPDDYWIELKTALQAGMSLVNGLHTPLANIPDLNALLQPGQLIWDVRKEPANLDVASGAARTLPCRRVLTVGTDMAIGKMSTSLELHWAAKLRGWRSKFLATGQTGVMLEGDGVALDAVRVDFAAGAVEQMVMRYGKNYDILHIEGQGSLLHPGSTATLPLIRGSQPTQLVLVHRAGQTHNGNNPHVPIPPLPEVIRLYETVASGGGAFGTVPVVGIALNTAHLDEYAAKEAIAHTIAETGLPCTDVVRFGADVLLDAVMQN
protein production: not failed

MNSNPFVSVVMSVYNGGEFLKDAINSILSQSYKNFEFIIINDGSSDNFSEILELYDDERIKVLNNQENKGLVYSLNRGLLESIGKYIVRMDADDISLPNRIEKQVEFMEREPEVGVCGSYIEIFGDTIKRKVQRFPSNVNVNEAFLLFSTCLAHPSVIIRKSIVDKYKLRYDDRYLHAEDYAIWCQAVKYTKISNIREVLLKYRILESSVTRQANKNFQSRFDVHKSIYKDIFRNKGIDYTEKELYLHFIISDNNRFRNQALTIRPSEINAHLTKILSHYRGASNYKYIAFLVNKRGLSLSRWYSESRGFYFIMYLFKFLYYKIQIKKLEHHHHHH
protein production: failed

MTERKLVAERNFEVNGYDIDAMGIVSNIVYIRWFEDLRTDFINQYMPYSDMMNQQISPILMNTEAEYKTPITIHDKPVGRCYLVKASKLRWEFEFEIESEDAVHCIGKQSGTFFDLQKKKVTRLPEVFQTILSLEHHHHHH
protein production: failed

MTEPYAVPVPRGYRVGVWEVHAPIATGAFGSVYAARRTGGDDTKASPTRPGGDDNTKAPPTRPGGDGTGHRPSRPGTTDTAGTDDSHGTGTGTGTGTPSRAQTDTAHPAEGDTDDPGHTSGNGTTGTDGTRRSHGTGTGTPSRAHTDTAHPAEGDTDNPGHTSGNGTTGTDGTGRSHGTGTGTGTHNPSRVQTGAAHPAKGDTDNPGRTGGDGTARRPGRAGVVGAGRGGDAGGEVPDTVALKFLPTGTGTPRQLAHLRDLVEREVELLRRLRRPRLIRMYETLTVDDPAHPRLDGATVLVLERAEGSLSALLAATPRPPAGPALLAQVCEGLQQLHRAGWVHGDLKPANVLLMADGSARLADFNMAAELEGTHAYTPAFATPDYTPPELLWSEIGERGRRIRPSADVWAFGVLAHLVLTGSFPLPGGTPTARRDAAVAYARGGHELRLSPEPPPGWREIVRACLTRTHADRIGTDALLRRVTGTTEGASGGAGFSPRTRARPRRRVLAALAAGLLALAALGYGVARWAGDGREPAAGPRPGGTGSVAAASYGAAELRTDRDVPPAYRLLIVETAHDCDREEVSPALIAAMLKVESDFDPDLADPAKDEYGIARWTPSVLRWWMNEDGTPGETVPQPPFPPAESVPAMGRYLCWIAPRLDAGLPGDRSVLVAVAYRTSYRKVNDAGGVPPKYRDYADRVAHHLKEYTPRRGK
protein production: failed

MFQTQFSPINFRETKIIKANYKRFHEIRAKVQTETNDALNENEISAIKKSGFRGHVDISYKSSASFSPLPLQQYFTTMKKIVMRKLRSPVSHCMLVTKCQTTLQIGYIDWMESKSLSNIID
protein production: failed
